Substrate in this data set: Cn1c(=O)ccc2ccc(F)c(CCNC[C@H]3CN(c4cnc5c(n4)NC(=O)CO5)C(=O)O3)c21
Briefly: OAT3 transport in HEK293 cells. It counts as in vitro ADME, human. The conditions noted are these: other: HEK293; 37.0 °C.

B1: OAT3 (Homo sapiens) (protein)
chain: MTFSEILDRVGSMGHFQFLHVAILGLPILNMANHNLLQIFTAATPVHHCRPPHNASTGPWVLPMGPNGKPERCLRFVHPPNASLPNDTQRAMEPCLDGWVYNSTKDSIVTEWDLVCNSNKLKEMAQSIFMAGILIGGLVLGDLSDRFGRRPILTCSYLLLAASGSGAAFSPTFPIYMVFRFLCGFGISGITLSTVILNVEWVPTRMRAIMSTALGYCYTFGQFILPGLAYAIPQWRWLQLTVSIPFFVFFLSSWWTPESIRWLVLSGKSSKALKILRRVAVFNGKKEEGERLSLEELKLNLQKEISLAKAKYTASDLFRIPMLRRMTFCLSLAWFATGFAYYSLAMGVEEFGVNLYILQIIFGGVDVPAKFITILSLSYLGRHTTQAAALLLAGGAILALTFVPLDLQTVRTVLAVFGKGCLSSSFSCLFLYTSELYPTVIRQTGMGVSNLWTRVGSMVSPLVKITGEVQPFIPNIIYGITALLGGSAALFLPETLNQPLPETIEDLENWSLRAKKPKQEPEVEKASQRIPLQPHGPGLGSS
Usually Km stands for the substrate concentration at which the rate is half of its maximum. For orientation: Vmax means the rate approached at saturating substrate. With B1, the Michaelis constant (Km) is recorded as 121 µM and the Vmax was determined as 76.1 pmol/mg/min.

The values are drawn from paper PMC11410943.
